Values joined by “and” are separate entries in the source; they are usually repeats but may differ in a detail not shown here. Equal values may be shown once.
T1: human Nectin-4, full length on cells (human, UniProt Q96NY8 32-510)
T1 construct: whole, on cells; T-47D cells positive for Nectin-4 expression; also called Nectin-4 on T-47D cells; CHO-Nectin-4
T1 sequence (looked up): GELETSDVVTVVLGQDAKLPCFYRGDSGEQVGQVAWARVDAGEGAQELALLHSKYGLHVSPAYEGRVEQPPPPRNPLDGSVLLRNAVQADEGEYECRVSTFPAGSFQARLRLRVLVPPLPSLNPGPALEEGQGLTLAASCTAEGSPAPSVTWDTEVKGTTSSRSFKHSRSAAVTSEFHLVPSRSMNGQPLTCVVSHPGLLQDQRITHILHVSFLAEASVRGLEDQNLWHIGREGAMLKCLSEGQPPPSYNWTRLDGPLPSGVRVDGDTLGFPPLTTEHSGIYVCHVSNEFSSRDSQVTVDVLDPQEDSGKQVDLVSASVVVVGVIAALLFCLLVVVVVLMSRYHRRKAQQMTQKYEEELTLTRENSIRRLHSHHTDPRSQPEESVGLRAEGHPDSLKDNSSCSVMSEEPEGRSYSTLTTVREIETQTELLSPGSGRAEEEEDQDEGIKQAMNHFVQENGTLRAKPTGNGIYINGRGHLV

T2: human Nectin-4 extracellular antigen hNectin-4-His (human, UniProt Q96NY8 32-349)
T2 construct: C-terminal 8xHis tag included
T2 sequence: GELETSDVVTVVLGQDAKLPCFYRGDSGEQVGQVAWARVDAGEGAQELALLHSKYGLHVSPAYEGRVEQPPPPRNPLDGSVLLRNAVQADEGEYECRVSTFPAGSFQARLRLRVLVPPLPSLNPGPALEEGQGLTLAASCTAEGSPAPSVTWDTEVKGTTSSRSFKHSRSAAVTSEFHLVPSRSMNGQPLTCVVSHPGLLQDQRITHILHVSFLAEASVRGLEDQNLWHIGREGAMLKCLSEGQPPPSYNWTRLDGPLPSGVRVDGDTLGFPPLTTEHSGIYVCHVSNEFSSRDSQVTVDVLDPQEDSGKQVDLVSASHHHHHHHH

T3: hNectin-2 (ACRO, PV2-H52E2) (human, UniProt Q92692 32-360)
T3 construct: bought; construct not described
T3 sequence (looked up): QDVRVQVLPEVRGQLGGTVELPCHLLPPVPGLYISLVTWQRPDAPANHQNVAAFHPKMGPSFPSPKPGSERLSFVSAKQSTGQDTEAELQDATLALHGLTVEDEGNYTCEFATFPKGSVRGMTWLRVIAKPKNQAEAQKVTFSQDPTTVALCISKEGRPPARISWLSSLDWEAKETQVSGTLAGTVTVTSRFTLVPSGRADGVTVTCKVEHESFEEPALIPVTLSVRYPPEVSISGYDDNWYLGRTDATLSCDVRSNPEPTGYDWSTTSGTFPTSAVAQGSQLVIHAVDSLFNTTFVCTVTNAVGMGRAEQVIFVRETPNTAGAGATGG


Columns and labels:
[1] = target: T1, human Nectin-4, full length on cells; assay: flow cytometry on T-47D cells
Experimental: In this study, the binding activity of different antibodies to T-47D cells positive for Nectin-4 expression was detected by FACS, and the EC₅₀ for the binding of antibodies to the cells was analyzed by a four-parameter method. The procedures are briefly described as follows: T-47D cells (the Cell Bank of Chinese Academy of Sciences, TCHu 87) were trypsinized; the antibodies were serially diluted and co-incubated with T-47D cells at 4° C. for 0.5-1 h, followed by the addition of the secondary PE-labeled anti-human Fc antibody (Invitrogen, 12-4998-82); the signal intensity of red fluorescence was detected on a flow cytometer, and curves were plotted using Graphpad Prism and the EC₅₀ was calculated.

[2] = target: T2, human Nectin-4 extracellular antigen …; assay: ELISA, coated hNectin-4-His
Text: (§1) The binding activity of the antibodies was detected by ELISA.

[3] = target: T1, human Nectin-4, full length on cells; assay: flow cytometry, T-47D cells, antibody bound on ice, 0 h at 37 C
Experimental: In this assay, the relative amount of antibodies remaining on the cell surface after co-incubation at 37° C. for a certain period of time was detected by FACS to reflect the endocytosis efficiency. The procedures are briefly described as follows: T-47D cells (human ductal breast cancer cells, derived from the Cell Bank of Chinese Academy of Sciences, Cat.No. TCHu 87); the antibodies of interest were adjusted to 10 µg/mL and co-incubated with the cells on ice for 1 h; the cells were washed 3 times with pre-cooled PBS, and then placed at 37° C. and incubated for 0 h, 2 h and 4 h; 0.2% N₃Na was added to stop the endocytosis reaction; the cells were washed with PBS thrice, followed by the addition of the PE-labeled anti-human Fc secondary antibody (Invitrogen 12-4998-82); the cells were incubated at 4° C. for 30 min; the red fluorescence signal was detected on a flow cytometer.

[4] = target: T2, human Nectin-4 extracellular antigen …; assay: SPR, antibody on Protein A chip, 1:1 fit
Text: (§2) In this study, the affinity of the antibodies for the human Nectin-4 extracellular antigen was detected by surface plasmon resonance (SPR) technique (BIAcore: GE Healthcare, T200).

[5] = target: T3, hNectin-2 (ACRO, PV2-H52E2); assay: ELISA, coated antigen
Text: as §1
(§3) In this assay, the binding of different antibodies to human Nectin-4 homologous proteins hNectin-1 (ACRO, PV1-H5223), hNectin-2 (ACRO, PV2-H52E2), hNectin-3 (ACRO, PV3-H52E4), and hNectin-4-His was detected by ELISA to determine the specificity of the antibodies. For the methodology and procedures, see Example 4. Antigens of interest ([…]) were immobilized; after blocking, serially diluted antibodies (2-fold serially diluted from […]) were added, and HRP-labeled anti-human-Kappa secondary antibody was added for chromogenic reaction.

[6] = target: T2, human Nectin-4 extracellular antigen …; assay: ELISA, coated antigen
Text: as §1, §3

[7] = target: T2, human Nectin-4 extracellular antigen …; assay: SPR, antibody on Protein A chip, hNectin-4-His analyte, 1:1 fit
Text: as §2

EC50 [1] | EC50 [2] [µg/mL] | MFI (mean fluorescence intensity) 0 h [3] [MFI] | Kd [4] [nM] | koff [4] [s⁻¹] | kon [4] [M⁻¹ s⁻¹] | EC50 [6] [µg/mL] | Kd [7] [nM] | koff [7] [s⁻¹] | kon [7] [M⁻¹ s⁻¹] | Binder | binding result [5]
0.109 µg/mL and 0.727 nM | 0.068 | 105000 | 4.97 | 0.003 | 605000 | 0.041 | 4.97 | 0.003 | 605000 | antibody 1G8 (antibody, human IgG1, kappa, V domains shown) VH: not shown VL: DIQMTQSPSSLSASVGDRVTITCRASQGISSYLAWYQQKPGKAPKLLIYAASSLQSGVPSRFSGSGSGTDFTLTISSLQPEDFATYYCQQHYTTPPTFGQGTKVEIKR | no binding (tested: 2-fold serially diluted from 2 g/mL)
0.116 µg/mL and 0.77 nM | 0.041 | 121000 | 2.49 | 0.00195 | 785000 | 0.04 | 3.21 | 0.00261 | 813000 | antibody 1F3 (antibody, human IgG1, kappa, V domains shown) VH: not shown VL: DIQMTQSPSSLSASVGDRVTITCRASQGISSYLAWYQQKPGKAPKLLIYAASSLQSGVPSRFSGSGSGTDFTLTISSLQPEDFATYYCQQHYTTPPTFGQGTKVEIKR | no binding (tested: 2-fold serially diluted from 2 g/mL)
0.156 µg/mL and 1.04 nM | 0.038 | 104000 | 3.23 | 0.00121 | 375000 | 0.045 | 2.77 | 0.00103 | 373000 | antibody 10F4 (antibody, human IgG1, kappa, V domains shown) VH: not shown VL: DIQMTQSPSSLSASVGDRVTITCRASQGISSYLAWYQQKPGKAPKLLIYAASSLQSGVPSRFSGSGSGTDFTLTISSLQPEDFATYYCQQHYTTPPTFGQGTKVEIKR | no binding (tested: 2-fold serially diluted from 2 g/mL)

From patent US20260144882A1 (BIO THERA SOLUTIONS, published 2026)
